Source: patent CN116063501A (HUADAO SHANGHAI BIOMEDICAL CO LTD, dated 2023)

Target: T1, CD4抗原 (UniProt P01730 26-458, limits assumed)
T1 construct: whole, on cells; also called 细胞表面的CD4抗原
Assay: flow cytometry on Nalm6-CD4 cells; antibody from 4 μg/mL in 4-fold steps, 10 concentrations; APC goat anti-mouse IgG secondary

B1: 抗CD4-1抗体 (antibody, V domains shown)
VH: EVQLQQSGPELVKPGDSVKMSCKASGYTFTDYFMDWVKQSHGKSLEWIGYIYPNNGGTNNNQKFKGKATLTVDKSSSTAYMELHSLTSEDSAVYYCARRGYDEGFAYWGQGTLVTVSS
VL: DILLTQSPAILSVSPGERVSFSCRASQIIGTSILWYQQRTNGSPRLLIKYASESISGIPSRFSGSGSGTDFTLSINSVESEDIADYYCQQSNTWPFTFGGGTKLEMK
notes: Detected with a goat anti-mouse IgG secondary antibody; also called 抗CD4抗体; 抗CD4(CD4-1)抗体
B1 was tested, and the EC50 was 0.101 µg/mL.
